The series “AUC” deals with the molecule itself. The series can be described thus: AUC.
The series “SEC-MALS + AUC” concerns the molecule itself. The series can be described thus: SEC-MALS + AUC.
Series [1] has as its target ALK-ECR^ABR (residues 673–1025) (human). The series can be described thus: SEC-MALS.
Series [2] concerns the target ALK-ECR^ABR−4M (T686A/N787A/Q788A/I795A) (human, UniProt Q9UM73 673-1025, T686A | N787A | Q788A | I795A). The series can be described thus: SEC-MALS + AUC.

Where a chain is given by its changes, count along the chain named. In names and notes the source's numbering stands.

The results in this text go back to publication PMC8639797 (Nature, 2021).

B1: MBP-ALKAL2^C66Y (ligand, human)
chain: AEPREPADGQALLRLVVELVQELRKHHSAEHKGLQLLGRDYALGRAEAAGLGPSPEQRVEIVPRDLRMKDKFLKHLTGPLYFSPKCSKHFHRLYHNTRDCTIPAYYKRCARLLTRLAVSPVCMEDKQ
In “AUC”, B1 registered a Kd of 38 ± 6 µM.

B2: ALK ECR^ABR−4M:ALKAL2^2M 1:1 complex (complex, human)
chain 1: QTPIFDPTVHWLFATCGASGPHGPTQAQCNNAYQNSNLSVEVGSEGPLKGIQIWKVPATDTYSISGYGAAGGKGGKNTMMRSHGVSVLGIFNLEKDDMLYILVGQQGEDACPSTAALIQKVCAGENNVIEEEIRVNRSVHEWAGGGGGGGGATYVFKMKDGVPVPLIIAAGGGGRAYGAKTDTFHPERLENNSSVLGLNGNSGAAGGGGGWNDNTSLLWAGKSLQEGATGGHSCPQAMKKWGWETRGGFGGGGGGCSSGGGGGGYIGGNAASNNDPEMDGEDGVSFISPLGILYTPALKVMEGHGEVNIKHYLNCSHCEVDECHMDPESHKVICFCDHGTVLAEDGVSCIVSP
chain 2: B1 chain with I102A, Y105A
As to B2, the “fold reduction of dimerization to the 2:2 complex against the wild-type complex” value in the series “SEC-MALS + AUC” was 5 fold.

B3: ALKAL2^C66Y (full-size, MBP removed) (ligand, human)
chain: B1 chain
On to B3, for which, in series [1], the “stoichiometry N” value amounted to 1.

B4: ALKAL2^2M (full-size ALKAL2^C66Y with I127A/Y130A) (ligand, human, UniProt Q6UX46 26-152, looked up)
chain: B1 chain with I102A, Y105A
As for B4, the “stoichiometry N” value in series [2] was found to be 1.

B5: ALK-ECR^ABR–ALKAL2^C66Y 1:1 heterodimeric complex (complex, human)
chain 1: B2 chain 1 with A14T, A115N, A116Q, A123I
chain 2: B1 chain
With B5, the Kd in “SEC-MALS + AUC” is approximately 3.2 µM.
